This series is described as follows: yeast display, Sf9 membrane polyspecificity reagent, FACS + sequencing; frameworks hold sequencing errors. A digest of the protocol: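 Synthetic nanobody libraries on Saccharomyces cerevisiae BJ5465 were galactose-induced for 36–48 hours, stained 1 hour at 4 °C with 10% biotinylated, detergent-solubilized Sf9 membrane reagent and enriched on streptavidin microbeads. FACS then separated cells into low and high (top ~1%) gates by anti-HA (expression) and streptavidin (reagent binding) fluorescence. Genes were colony-PCR amplified, MiSeq 2 × 250 sequenced and CDR-length filtered. A clone's polyreactivity label is that of its gate of origin.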
For the sequence “QVQLVESGGGLVQAGGSLRLSCAASGRTFSVNAMGWYRQAPGKEREFVAAITGSTGSTFYADSVKGRFTISRDNAKNSVYLQMNSLKPDDTAVYYCAAGPWFYYWGQGTQVTVSS”, the “polyreactivity (PSR sort gate)” value is reported as “low polyreactivity”.

In the case of “QVQLVESGGGLVQAGGSLRLSCAASGRTFSVNAMGWYRQAPGKERELVAAISWDGGSTYYADSVKGRFTISRDNAKNTVYLQMNSLKPEDTAVYYCNADYSIPGYYWPYDYWGQGTQVTVSS”, the “polyreactivity (PSR sort gate)” value is “low polyreactivity”.

As for “QVQLVESGGGLVQAGGSLRLSCAASGRTFSVNDMGRYRQAPGKEREMVAAISFSGGSTYYADSVKGRFTISRDDAKNTVYLQMNSLKPEDTAVYYCAAEAYPSWFYVITGFGIYDYWGQGTQVTVSS”, the “polyreactivity (PSR sort gate)” value was “high polyreactivity”.

Regarding “QVQLVESGGGLVQAGGSLRLSCAASGRTFSVNDMGWYRQAPGKERELVAAISFSGGSTYYADSVKGRFTISRDNAKNTVYLQMNSLKPEDTAVYYCAAEAYPSWFYVITGFGIYDYWGQGTQVTVSS”, the “polyreactivity (PSR sort gate)” value is on record as “high polyreactivity”.

Consider “QVQLVESGGGLVQAGGSLRLSCAASGRTFSVNDMGWYRQAPGKERELVAAISFSGGSTYYADSVKGRFTISRDNAKNTVYLQMNSLKPEDTAVYYCAARVRWWSPGGYWGQGTQVTVSS”, for which the “polyreactivity (PSR sort gate)” value is “high polyreactivity”.

“QVQLVESGGGLVQAGGSLRLSCAASGRTFSVYAMGWYRQAPGKERELVAAIRTSGGITYYADSVKGRFTISRDNAKNTVYLQMNSLKPEDTAVYYCAAETFRPYSYTRYYYWGQGSQVTVSS”: the “polyreactivity (PSR sort gate)” value is listed as “high polyreactivity”.

Turning to “QVQLVESGGGLVQAGGSLRLSCAASGRTFSWNAMGWYRQAPGKERELVAAISNSGGSTYYADSVKGRFTISRHNAKNPVYLQMNSLKPEDTAVYYCAADDIYKYYQYYAFPYYRYDYWGQGTQVTVSS”, the “polyreactivity (PSR sort gate)” value is “low polyreactivity”.

Regarding “QVQLVESGGGLVQAGGSLRLSCAASGRTFSWYAMGGYRQAPGTERELVASISRGGSKSYADSVKGRFTISRDNAKNTVYLQMNSLKPEYTAVYYCAAGGFARTISYYWGQGTQVTVSS”, the “polyreactivity (PSR sort gate)” value is recorded as “high polyreactivity”.

“QVQLVESGGGLVQAGGSLRLSCAASGRTFSYNAIGWYRLAPGKERELVARISSGGSTNYADSVKGRFTISRDNAKNTVYLQMNSLKPEDTAVYYCNAVYRTYEYYWGQGTQVTVSS”: the “polyreactivity (PSR sort gate)” value is “high polyreactivity”.

Turning to “QVQLVESGGGLVQAGGSLRLSCAASGRTFSYNAMGWYRQAPGKERELVASISSSGTSTSYADSVKGRFTISRDNAKNTVYLQMNSLKPEDTAVYYCATVRYPYWYSGPQNSRGYWGQGTQVTVSS”, the “polyreactivity (PSR sort gate)” value is “high polyreactivity”.

On to “QVQLVESGGGLVQAGGSLRLSCAASGRTFSYYAMGWSRQAPGKERELVATIRFSGGGTYYADSVKGRFTISRDNAKNTVYLLMNSLKPEATAVYYCAALNYHKFAHKYDYWGQGTQVTVSS”, for which the “polyreactivity (PSR sort gate)” value is given as “low polyreactivity”.

As for “QVQLVESGGGLVQAGGSLRLSCAASGRTFSYYAMGWYRKAPGKERELVAAFSGRGASTYYADSVKGRFTISRDNAKNTVYVQMNSLKPEDTAVYYCNAVPYYQYEYWGQGTQVTVSS”, the “polyreactivity (PSR sort gate)” value is given as “low polyreactivity”.

Consider “QVQLVESGGGLVQAGGSLRLSCAASGRTFSYYAMGWYRQAPGKEREFVAAISSTGTSTYYADSVKGRFTISRDTAKNTVYLQKNSLKPEDTAVYYCNARLATYRLHSKFYYWGQGTQVTVSS”, for which the “polyreactivity (PSR sort gate)” value was “high polyreactivity”.

On to “QVQLVESGGGLVQAGGSLRLSCAASGRTFSYYAMGWYRQAPGKERELVAAISWRGGSTYYADSVKGRFTISRDNAKNTVYLQMNSLKPEDTAVYYCAALPRYALGEDYWGQGTQVTVSS”, for which the “polyreactivity (PSR sort gate)” value is reported as “high polyreactivity”.

Take “QVQLVESGGGLVQAGGSLRLSCAASGRTFSYYAMGWYRQAPGKERELVARITYRGGRTYYADSVKGRFTISRDNAKNTVYLQMNSLKPEDTAVYYCNADAINKRGGLDYWGQGTQVTVSS”: the “polyreactivity (PSR sort gate)” value is “high polyreactivity”.

For the sequence “QVQLVESGGGLVQAGGSLRLSCAASGRTFSYYAMGWYRQAPGKERSLVAAISWSGGRTYYADSVKGRFTISRDNAKNTVYLQMNSLKPEDTAVYYCAARYVYPYWYGDYYWGQGTQVTVSS”, the “polyreactivity (PSR sort gate)” value is given as “low polyreactivity”.

As for “QVQLVESGGGLVQAGGSLRLSCAASGRTFSYYTMGWYRQAPGKERELVARISNRGTNTYYADSVKGRFTISRDNAKNTVYLQMNSLKPEDTAVYYCNTEDFFNVPEMDSWGQGTQVTVSS”, the “polyreactivity (PSR sort gate)” value is “low polyreactivity”.

In the case of “QVQLVESGGGLVQAGGSLRLSCAASGRTFSYYVMGWYRQAAGKERELVAAISRTTRTYYADSVKGRFSISRDNAKNTVYLHMNSLKPEDTAVYYCAADFPKGHYHYWGHGTQVTVSS”, the “polyreactivity (PSR sort gate)” value is reported as “high polyreactivity”.

Take “QVQLVESGGGLVQAGGSLRLSCAASGRTFTFNAMGWYRQAPGKETELVAAISTSGGSTYYADSVKGRFTISRDNAKNTVYLQMNSLKPEDTAVYYCNTYPYYRAGGSDYWGQGTQVTVSS”: the “polyreactivity (PSR sort gate)” value was “high polyreactivity”.

With “QVQLVESGGGLVQAGGSLRLSCAASGRTFTFYTMGWYRQAPGKERELVAAITSGGSTYYADSVKGRFTISRDNAKNTVYLQMNSLKPEDTAVYYCAAKYYYTYYYWGQGTQVTVSS”, the “polyreactivity (PSR sort gate)” value is “high polyreactivity”.

In the case of “QVQLVESGGGLVQAGGSLRLSCAASGRTFTGNTMGWYRQAPGKERELVAAISSSGGRTYYADSVKGRFTISRDNAKNTVYLQMNSLKQVDTAVYYCNATIWRTQYGYWGQGTQVTVSS”, the “polyreactivity (PSR sort gate)” value is listed as “high polyreactivity”.

With “QVQLVESGGGLVQAGGSLRLSCAASGRTFTGNVMGWYIKAPGKERELVAAISRSGTSTYYADSVKGRFTISRDNAKNTVYLQMNSRKPEDTAVYYCAARRTAGYRSAEYDYWGQGTQVTVSS”, the “polyreactivity (PSR sort gate)” value was “high polyreactivity”.

Regarding “QVQLVESGGGLVQAGGSLRLSCAASGRTFTGYAMGWYRQAPGKERELVAAISSRVGSTYYADSVKGRFTISRDNAKNTVYLQMNSLKPEDTAVYYCAKDSQSYTREAYYYWGQGTQVTVSS”, the “polyreactivity (PSR sort gate)” value is “low polyreactivity”.

For the sequence “QVQLVESGGGLVQAGGSLRLSCAASGRTFTGYAMGWYRQAPGKERELVAAITRSGTRTYYADSVKGRFTISRDNAKNTVYLQMNSLKPEDTAVYYCAAADTQGVSMDYWGQGTQVTVSS”, the “polyreactivity (PSR sort gate)” value is listed as “high polyreactivity”.

Turning to “QVQLVESGGGLVQAGGSLRLSCAASGRTFTGYAMGWYRQAPGKERELVAAMSASGGSTYYADSVKGRFTISRDNAKNTVYLQMNSLKPEDTAVYYCAAETWYSVLWEEGYDYWGQGTQVTVSS”, the “polyreactivity (PSR sort gate)” value was “low polyreactivity”.

On to “QVQLVESGGGLVQAGGSLRLSCAASGRTFTGYTMGWYRQAPGKEREFVAAISSNGGRTYYADSVKGRFTISRDNAKNTVYIQMNSLKPEDTAVYYCAAPYTFWGQGTQVTVSS”, for which the “polyreactivity (PSR sort gate)” value is “high polyreactivity”.

In the case of “QVQLVESGGGLVQAGGSLRLSCAASGRTFTHNTMGWYRQAPGKERELVAAISRSGASTYYADSVKGRFTISRDNAKNTVYLQMNRLKPEDTAVYYCNAYSRPHFGYVVGTKSRHGYWGQGTQVTVSS”, the “polyreactivity (PSR sort gate)” value is reported as “high polyreactivity”.

Take “QVQLVESGGGLVQAGGSLRLSCAASGRTFTHYAMGWYRQAPGKERELVAAISRSGGTTYYADSVKGRFTISRDNAKSTVYLQMNSLKPEDTAVYYCNAEVVDFELGVFEDYYWAYDYWGQGTQVTVSS”: the “polyreactivity (PSR sort gate)” value was “high polyreactivity”.

“QVQLVESGGGLVQAGGSLRLSCAASGRTFTHYAMGWYRQAPGKERELVAAISSGGGTYYADSVKGRFTISRDNAKNTVYLQMNSLKPEDTAVYYCNADYTNYHDPFRTYGYWGQGTQVTVSS”: the “polyreactivity (PSR sort gate)” value is listed as “low polyreactivity”.

With “QVQLVESGGGLVQAGGSLRLSCAASGRTFTINAMGWYRQAPGKERELVATIRVSGGSTYYADSVKGRFTISRDNAKNTVYLQMNSLKPEDTAVYYCAKGGTYFYAPAYDYWGQGTQVTVSS”, the “polyreactivity (PSR sort gate)” value was “low polyreactivity”.

These data come from the nanobody polyreactivity screen of Harvey et al. (2022).
